Broadly, the Kd is the concentration at which binding is half-saturated.

The target of this data set is Hsp90alpha recombinant (UniProt P07900 1-732). Briefly: filter binding.

B1: 390896 PS/LNA 5-10-5 (XNA)
DNA: CTGCTAGCCTCTGGATTTGA
modifications: full PS; LNA nt 1-5 and 16-20, DNA 6-15
For the molecule B1, the Kd stood at 17.7 nM.

Source of the values: article PMC4856991.
